Reference: the supplement of paper PMC9732359
± gives the uncertainty stated by the source.

Experiment: protein stability index of a GFP-peptide fusion (yeast GPS) (PSI 1-4); higher = more stable; sorted into four equal gates, so the index is relative within each strain
Procedure, shortened: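 Peptides tiling yeast proteins in 17-residue segments were fused downstream of GFP, with Cherry expressed from the same plasmid. As a pooled library in yeast, mid-log cultures grown in leucine-free medium were sorted into four equal gates by GFP/Cherry fluorescence ratio. Gate plasmids were PCR-amplified and Illumina-sequenced, and barcodes linked reads to strains. Each peptide received a protein stability index equal to the sum of each gate's read frequency times its gate number.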

Row | Sequence | protein stability index (doa10∆) | protein stability index (pdr5∆) | protein stability index (san1∆) | protein stability index (ubr1∆)
1 | QVASIIESFVELGVSIY [NUT2] | 2.77 ± 0.13 | 2.98 ± 0.17 | 2.2 ± 0.13 | 1.76 ± 0.045
2 | MGKRVDFSARTVISGDP [RPO21] | 2.98 ± 0.087 | 3.27 ± 0.12 | 3.08 ± 0.14 | 3.1 ± 0.19
3 | KALPMLEQVEFEKNTIL [MED4] | 3.02 ± 0.07 | 3.04 ± 0.083 | 2.65 ± 0.064 | 3.08 ± 0.083
4 | ADVTSNIDSSAQFTFGK [YOR098C/NUP1] | 3.05 ± 0.093 | 3.25 ± 0.087 | 2.89 ± 0.091 | 3.13 ± 0.057
5 | SGIRLIEPELFNGYNPE [FAS2] | 2.81 ± 0.067 | 2.89 ± 0.074 | 2.82 ± 0.073 | 2.83 ± 0.045
6 | SKALNSILESSMFLRID [RGR1] | 2.42 ± 0.16 | 2.67 ± 0.11 | 2.08 ± 0.11 | 2.83 ± 0.082
7 | SPQLTAIIGLKSGTSHD [SNF12] | 1.52 ± 0.067 | 1.82 ± 0.074 | 1.84 ± 0.12 | 1.66 ± 0.065
8 | NTLILRGPRNSREAVRH [RPL18A] | 2.53 ± 0.25 | 2.89 ± 0.18 | – | –
9 | ANAMNRMAKLCARFLGN [RPO31] | 3.12 ± 0.21 | – | – | –
10 | GRKYTTLGKLSTSVGWK [RPL16B] | 2.79 ± 0.1 | 1.94 ± 0.1 | 2.77 ± 0.11 | 2.64 ± 0.067
11 | SNIPTLIEKLQGFSKDT [YDL116W/NUP84] | 3.22 ± 0.1 | 3.23 ± 0.088 | 3.01 ± 0.05 | 3.17 ± 0.073
12 | KMKIQETISKLNEYKRE [SMC2] | 1.3 ± 0.065 | 1.48 ± 0.051 | 2.35 ± 0.084 | 1.93 ± 0.036
13 | CMEVASAFMKFSKAIEW [BRR2] | 2.12 ± 0.064 | 2.21 ± 0.047 | 2.42 ± 0.068 | 1.98 ± 0.043
14 | QSLNEMVKLIVMLCTLT [YJL039C/NUP192] | 2.52 ± 0.071 | 2.63 ± 0.057 | 2.81 ± 0.11 | 2.27 ± 0.058
15 | LDPISLILIPGETMWVP [RPN13] | 2.28 ± 0.095 | 2.45 ± 0.049 | 2.95 ± 0.093 | 3.4 ± 0.12
16 | DMAKLKKMMNTSDSEST [SWI3] | 1.81 ± 0.059 | 2.27 ± 0.05 | 1.94 ± 0.073 | 1.91 ± 0.036
17 | LTSNISSLVRSCGEEEF [REC8] | 3.33 ± 0.17 | 2.78 ± 0.13 | 2.21 ± 0.13 | 3.25 ± 0.13
18 | VSNSGAQDEEIHKQIVI [UBP6] | 3.17 ± 0.16 | 3.5 ± 0.14 | 3.08 ± 0.14 | 3.16 ± 0.11
19 | DTDNECVAAWGVCNHAF [HRT1] | 3.25 ± 0.095 | 3.3 ± 0.059 | 3.33 ± 0.054 | 3.15 ± 0.05
20 | TEDRYNEYVAKVSAREK [FAS2] | 3.2 ± 0.086 | 3.14 ± 0.074 | 3.04 ± 0.094 | 3.3 ± 0.06
21 | MVGLASGNDSMAGKVLI [BRR2] | 3.24 ± 0.1 | 3.4 ± 0.092 | 3.21 ± 0.091 | 3.47 ± 0.058
22 | SLSAYNLTDEGYQWGEE [PRP8] | 3.33 ± 0.22 | 3.12 ± 0.15 | – | 3.33 ± 0.19
23 | NKAQAKMDKRAKTSDSA [RPL8B] | 3.34 ± 0.23 | 3.02 ± 0.12 | 3.27 ± 0.066 | 3.31 ± 0.071
24 | LLSDTFEVLAPKWERVF [RRI2] | 3.13 ± 0.11 | 2.48 ± 0.076 | 1.75 ± 0.091 | 2.93 ± 0.11
25 | KILNIIKCSQSSHLSDN [POP5] | 1.97 ± 0.05 | 2.77 ± 0.069 | 2.28 ± 0.065 | 2.09 ± 0.053
26 | GNGELYMDCLLYDLRAS [SNU114] | 2.03 ± 0.058 | 2.12 ± 0.1 | 1.91 ± 0.13 | 2.29 ± 0.077
27 | PFLNETKPGVYYVPYSK [RPC82] | 3.09 ± 0.12 | 2.97 ± 0.13 | 3.03 ± 0.064 | 3.36 ± 0.091

Row | Sequence | protein stability index (doa10∆) | protein stability index (pdr5∆) | protein stability index (san1∆) | protein stability index (ubr1∆)
28 | SDIESLEALMDILLCYQ [SRB8] | 2.84 ± 0.13 | 2.74 ± 0.2 | 3.03 ± 0.19 | 2.29 ± 0.2
29 | DGFDPRGNIKVMFATNR [RPT1] | 3.25 ± 0.17 | 3.48 ± 0.16 | 3.26 ± 0.091 | 3.24 ± 0.14
30 | FSKAIEWDMLNVEEEQI [BRR2] | 2.71 ± 0.078 | 3.03 ± 0.11 | 2.54 ± 0.07 | 2.93 ± 0.06
31 | HHYRPDMTTEEGLDLLK [PRE1] | 3.32 ± 0.19 | 3.41 ± 0.17 | – | 3.53 ± 0.093
32 | KKIENTMLENITLRGVE [RPO21] | 3.38 ± 0.12 | 2.79 ± 0.12 | 2.98 ± 0.07 | 3.09 ± 0.077
33 | LTYKSELSKSRALQENG [YMR153W/NUP53] | 1.89 ± 0.063 | 1.95 ± 0.041 | 2.01 ± 0.085 | 1.87 ± 0.034
34 | NNIRQAICRYANVIKAL [RRP4] | 1.41 ± 0.11 | 1.36 ± 0.07 | 1.17 ± 0.14 | 1.43 ± 0.14
35 | EYVYFFNNTSVIQDEVL [RPC40] | 2.41 ± 0.15 | – | – | 2.55 ± 0.073
36 | ASSNFPFLNETKPGVYY [RPC82] | 3.09 ± 0.12 | 2.43 ± 0.09 | 2.73 ± 0.091 | 2.99 ± 0.072
37 | DDYILSGESVMDRDSES [SRB4] | 3.45 ± 0.19 | 3.6 ± 0.12 | 3.34 ± 0.15 | 3.21 ± 0.13
38 | LQESINHVMYTEVSRKS [ECM29] | 2.47 ± 0.054 | 2.74 ± 0.062 | 2.47 ± 0.077 | 2.51 ± 0.035
39 | AAPAAAAAEIADEPVKA [FAS2] | 2.55 ± 0.063 | 2.74 ± 0.067 | 2.56 ± 0.078 | 2.53 ± 0.045
40 | DEEELGQRTAYHSKRDA [RPB2] | 3.4 ± 0.1 | 2.9 ± 0.14 | 3.31 ± 0.09 | 3.04 ± 0.098
41 | RQTLAPYAVLSQFYELR [YJR042W/NUP85] | 1.98 ± 0.12 | 2.75 ± 0.24 | 2.42 ± 0.16 | 2.35 ± 0.09
42 | LKEDDSSLYEASLNALK [RPN1] | 3.44 ± 0.24 | 3.18 ± 0.14 | 3.5 ± 0.12 | 2.95 ± 0.093
43 | LLLAAQIVSYCSNNKNS [SSN2] | 1.17 ± 0.045 | 1.42 ± 0.048 | 1.23 ± 0.083 | 1.34 ± 0.045
44 | HKDIPEEDFYTVVGNAS [DSN1] | 2.94 ± 0.091 | 2.91 ± 0.18 | 2.73 ± 0.1 | 3.19 ± 0.062
45 | LEDLVFPTEIVGKRVRY [RPS7A] | – | 3.52 ± 0.28 | – | 3.71 ± 0.25
46 | MPQSFTSIARIGDYILK [QCR7] | 3.35 ± 0.2 | 3.33 ± 0.12 | 3.04 ± 0.15 | 3.1 ± 0.062
47 | SPTENGVFDPASYSKYL [RPL22B] | 3.18 ± 0.074 | 3.25 ± 0.083 | 3.05 ± 0.066 | 2.87 ± 0.06
48 | SDEKKDGDASKPAFSFG [YJL041W/NSP1] | 3.24 ± 0.092 | 2.64 ± 0.23 | 3.25 ± 0.056 | 3.23 ± 0.1
49 | RKTWKRQNTLSLWRYRK [RPL15A] | 3.45 ± 0.083 | 3.1 ± 0.074 | 3.3 ± 0.052 | 3.36 ± 0.046
50 | RPKPVSPPCYIIDHIPG [SNF5] | 1.79 ± 0.098 | 2.64 ± 0.096 | 2.28 ± 0.12 | 2.25 ± 0.079
51 | KELELERKEREDFQKRQ [SWI1] | 3.25 ± 0.076 | 3.22 ± 0.078 | 3.32 ± 0.068 | 3.31 ± 0.045
52 | EVVQTGAKNIEITVVKP [PRE6] | 3.24 ± 0.098 | 3.3 ± 0.093 | 3.08 ± 0.052 | 3.04 ± 0.087
53 | LNELYQTQQDLPKVRYN [NSL1] | 3.1 ± 0.042 | 3.12 ± 0.052 | 2.96 ± 0.039 | 3.03 ± 0.038
54 | NNDFKLSIDKVLKKPNR [RET1] | 2.06 ± 0.092 | 2.84 ± 0.12 | 3.01 ± 0.1 | 2.94 ± 0.13
